Measured values reported in paper PMC4225772.

What was measured:
[1] = FX activation assay, CHO cell surface; settings: glycan lost; control: wild-type TF-GFP
[2] = CHO lysates, GFP immunoblot and GFP fluorescence; settings: glycan lost; control: wild-type TF-GFP
[3] = cell-surface TF antigen, radiolabelled mAb binding, CHO; settings: glycan lost; control: wild-type TF-GFP
TF antigen ELISA, PBMC = settings: glycan lost; control: LPS-stimulated PBMC without tunicamycin
[4] = FX activation on intact PBMC; settings: glycan lost; control: LPS-stimulated PBMC without tunicamycin
[5] = FX activation assay, HUVEC surface; settings: glycan lost; control: wild-type TF-GFP
[6] = FX activation in freeze-thaw HUVEC lysates; settings: glycan lost; control: wild-type TF-GFP
[7] = confocal microscopy, GFP and TF immunostaining, HUVEC; settings: glycan lost; control: wild-type TF-GFP

B1: tissue factor (TF): TFN11A (protein)
parent chain: METPAWPRVPRPETAVARTLLLGWVFAQVAGASGTTNTVAAYNLTWKSTNFKTILEWEPKPVNQVYTVQISTKSGDWKSKCFYTTDTECDLTDEIVKDVKQTYLARVFSYPAGNVESTGSAGEPLYENSPEFTPYLETNLGQPTIQSFEQVGTKVNVTVEDERTLVRRNNTFLSLRDVFGKDLIYTLYYWKSSSSGKKTAKTNTNEFLIDVDKGENYCFSVQAVIPSRTVNRKSTDSPVECMGQEKGEFREIFYIIGAVVFVVIILVIILAISLHKCRKAGVGQSWKENSPLNVS
With B1 the enzymatic_activity [1] was “no change”, the expression_or_secretion [2] was “no change” and the localisation_or_trafficking [3] was “no change”.

B2: tissue factor (TF): tunicamycin (protein)
parent chain: B1 parent chain
For B2, the expression_or_secretion (TF antigen ELISA, PBMC) was “no change” and the enzymatic_activity [4] was “no change”.

B3: tissue factor (TF): TFN11A/N137A (protein)
parent chain: B1 parent chain
In the case of B3, the enzymatic_activity [1] is reported as “no change”, the expression_or_secretion [2] is reported as “no change” and the localisation_or_trafficking [3] is reported as “no change”.

B4: tissue factor (TF): TFN11A/N124A/N137A-GFP (protein)
parent chain: B1 parent chain
With B4 the enzymatic_activity [5] was “no change”, the enzymatic_activity [6] was “no change” and the localisation_or_trafficking [7] was “no change”.

B5: tissue factor (TF): TFN11A/N124A/N137A (protein)
parent chain: B1 parent chain
With B5 the enzymatic_activity [1] was “no change”, the expression_or_secretion [2] was “no change” and the localisation_or_trafficking [3] was “no change”.

B6: tissue factor (TF): TFN11A/N124A (protein)
parent chain: B1 parent chain
With B6 the enzymatic_activity [1] was “no change”, the expression_or_secretion [2] was “no change” and the localisation_or_trafficking [3] was “no change”.
